# Measured values reported in the supplement of paper PMC9112550, “Optimization of the antimicrobial peptide Bac7 by deep mutational scanning” (BMC Biology, 2022).
# System: Escherichia coli TOP10
# Test: shrunken log2 fold change of peptide-encoding DNA abundance (4.5 h post-induction vs induction); higher = less antimicrobial activity (less host growth inhibition)
# Conditions: time post-induction: 4.5 h; library: site-saturation at positions 5, 18, 19, 20
# 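Further: peptides expressed intracellularly from a pBAD plasmid library in pooled LB shake-flask culture, induced with 0.3% L-arabinose, DNA abundance read by NGS, three biological replicates, DESeq2 with apeglm shrinkage.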
row,Sequence,shrunken log2 fold change
1,RRIRSRPPRLPRPRPRPAAMPRP,0.852
2,RRIRSRPPRLPRPRPRPACWPRP,0.523
3,RRIRSRPPRLPRPRPRPADAPRP,0.0403
4,RRIRSRPPRLPRPRPRPADNPRP,0.00328
5,RRIRSRPPRLPRPRPRPAGIPRP,0.138
6,RRIRSRPPRLPRPRPRPAGRPRP,0.287
7,RRIRSRPPRLPRPRPRPAIEPRP,0.00515
8,RRIRSRPPRLPRPRPRPAIYPRP,-1.04
9,RRIRSRPPRLPRPRPRPAKVPRP,-0.0898
10,RRIRSRPPRLPRPRPRPAKWPRP,0.235
11,RRIRSRPPRLPRPRPRPALAPRP,0.419
12,RRIRSRPPRLPRPRPRPALFPRP,0.069
13,RRIRSRPPRLPRPRPRPALKPRP,0.161
14,RRIRSRPPRLPRPRPRPALPPRP,0.26
15,RRIRSRPPRLPRPRPRPAQPPRP,0.181
16,RRIRSRPPRLPRPRPRPAQYPRP,0.0401
17,RRIRSRPPRLPRPRPRPARTPRP,0.293
18,RRIRSRPPRLPRPRPRPASDPRP,0.407
19,RRIRSRPPRLPRPRPRPASFPRP,-0.226
20,RRIRSRPPRLPRPRPRPATDPRP,0.157
21,RRIRSRPPRLPRPRPRPATQPRP,0.168
22,RRIRSRPPRLPRPRPRPAYEPRP,0.00308
23,RRIRSRPPRLPRPRPRPAYNPRP,-0.00937
24,RRIRSRPPRLPRPRPRPCARPRP,0.00657
25,RRIRSRPPRLPRPRPRPCGDPRP,-0.0559

row,Sequence,shrunken log2 fold change
1,RRIRSRPPRLPRPRPRPCGLPRP,0.00512
2,RRIRSRPPRLPRPRPRPCGQPRP,0.088
3,RRIRSRPPRLPRPRPRPCHNPRP,-0.364
4,RRIRSRPPRLPRPRPRPCIGPRP,-0.18
5,RRIRSRPPRLPRPRPRPCKPPRP,-0.173
6,RRIRSRPPRLPRPRPRPCKYPRP,-0.0911
7,RRIRSRPPRLPRPRPRPCLHPRP,-0.0514
8,RRIRSRPPRLPRPRPRPCLRPRP,-0.385
9,RRIRSRPPRLPRPRPRPCLWPRP,0.0729
10,RRIRSRPPRLPRPRPRPCMGPRP,-0.403
11,RRIRSRPPRLPRPRPRPCNSPRP,-0.0626
12,RRIRSRPPRLPRPRPRPCQQPRP,-0.147
13,RRIRSRPPRLPRPRPRPCQYPRP,0.0376
14,RRIRSRPPRLPRPRPRPCRDPRP,-0.0619
15,RRIRSRPPRLPRPRPRPCRHPRP,0.063
16,RRIRSRPPRLPRPRPRPCRIPRP,-0.263
17,RRIRSRPPRLPRPRPRPCRLPRP,-0.271
18,RRIRSRPPRLPRPRPRPCRQPRP,-0.184
19,RRIRSRPPRLPRPRPRPCSVPRP,0.044
20,RRIRSRPPRLPRPRPRPCTEPRP,-0.241
21,RRIRSRPPRLPRPRPRPCTPPRP,-0.312
22,RRIRSRPPRLPRPRPRPCVMPRP,0.0389
23,RRIRSRPPRLPRPRPRPCWHPRP,-0.245
24,RRIRSRPPRLPRPRPRPCWIPRP,-0.0651
25,RRIRSRPPRLPRPRPRPCWRPRP,0.106

row,Sequence,shrunken log2 fold change
1,RRIRSRPPRLPRPRPRPCYNPRP,-0.513
2,RRIRSRPPRLPRPRPRPDAMPRP,0.83
3,RRIRSRPPRLPRPRPRPDAVPRP,0.32
4,RRIRSRPPRLPRPRPRPDCKPRP,-0.0745
5,RRIRSRPPRLPRPRPRPDCQPRP,0.117
6,RRIRSRPPRLPRPRPRPDDLPRP,0.0166
7,RRIRSRPPRLPRPRPRPDEAPRP,-0.104
8,RRIRSRPPRLPRPRPRPDEYPRP,-0.205
9,RRIRSRPPRLPRPRPRPDGDPRP,-0.197
10,RRIRSRPPRLPRPRPRPDILPRP,0.115
11,RRIRSRPPRLPRPRPRPDIWPRP,0.00423
12,RRIRSRPPRLPRPRPRPDKCPRP,-0.173
13,RRIRSRPPRLPRPRPRPDLIPRP,-0.00967
14,RRIRSRPPRLPRPRPRPDNHPRP,-0.307
15,RRIRSRPPRLPRPRPRPDQKPRP,-0.00231
16,RRIRSRPPRLPRPRPRPDRDPRP,-0.0344
17,RRIRSRPPRLPRPRPRPDRFPRP,-0.0456
18,RRIRSRPPRLPRPRPRPDRNPRP,-0.228
19,RRIRSRPPRLPRPRPRPDTRPRP,-0.337
20,RRIRSRPPRLPRPRPRPDVWPRP,0.49
21,RRIRSRPPRLPRPRPRPDWQPRP,-0.162
22,RRIRSRPPRLPRPRPRPDWSPRP,0.276
23,RRIRSRPPRLPRPRPRPDWTPRP,-0.179
24,RRIRSRPPRLPRPRPRPDWYPRP,-0.3
25,RRIRSRPPRLPRPRPRPDYNPRP,-0.622
